Our source for the Km values is patent EP2295560A1, “Directed evolution of arginine deiminase for increased activity at physiological pH” (priority 2009, dated 2011).

The test system of this data set is N=C(N)NCCC[C@H](N)C(=O)O. Briefly: Determination of kcat and Km (citrulline colorimetric assay, purified enzyme). In kind it is biochemical, Pseudomonas plecoglossicida CGMCC2039. The note with it: 0.5 M phosphate buffer, 0.2 mM to 10 mM of arginine. As to the method: The kcat and Km values were determined from initial velocity data measured as a function of substrate concentration. Enzyme reaction was carried out at 37°C in a water bath. After 10 min preincubation at 37"C, the enzyme reaction was initiated by addition of purified enzyme (50 µl, 0.2-0.5 µM) to the substrate solution (200 µl, 0.2 mM to 10 mM of arginine, 0.5 M phosphate buffer, pH 7.4) in deep well plates. The reaction mixture was incubated (37°C) and every two minutes reaction mixture (30 µl) of each well was transferred to acid-ferric solution (30 µl) to stop the enzyme reaction. The color development was subsequently performed in 96-well PCR plate. Ferric-acid solution (90 µl) and DAM-TSC solution (15 µl) were added to each well. The 96-well PCR plate was then incubated (70°C, 30 min) in thermal cycler (Eppendorf Mastercyler gradient) for color development, followed by incubation in ice water to stop color development. Absorbance was measured at 530 nm using a microtiter plate reader (SPECTROstar Omega, BMG LABTECH, Offenburg, Germany). The initial velocity data obtained were fitted to the equation v = Vmax[S]/([S] + Km) (where v is the initial velocity, Vmax the maximum velocity, [S] the substrate concentration, and Km the Michaelis constant) using GraphPad Prism software (GraphPad software, San Diego, CA, USA). The kcat was calculated from the ratio of Vmax, and enzyme concentration.
For kinetic characterization of ADI variants the citrulline production was maintained between 0.2-0.8 mM. […] Figure 4 summarizes the kcat and Km values of wild type PpADI, identified variants M1 […] and M2 (K5T D44E H404R) which were expressed in shaking flasks cultures and purified using a two step procedure (anion exchange follows by gel filtration). Both variants M1 and M2 show an increase in kcat and Km for citrulline production at pH 7.4.

In general, Km refers to the concentration of substrate that gives half-maximal velocity.

For the substance “Pseudomonas plecoglossicida arginine deiminase (PpADI) variant M1 (H404R) (Pseudomonas plecoglossicida; H404R)”, the Km (other: M1, pH 7.4, 37°C) was 1200 µM.
Regarding “Pseudomonas plecoglossicida arginine deiminase (PpADI), wild type, SEQ ID No. 1 (Pseudomonas plecoglossicida)”, the Km (other: wild type PpADI, pH 7.4, 37°C) amounted to 700 µM.
In the case of “Pseudomonas plecoglossicida arginine deiminase (PpADI) variant M2 (K5T D44E H404R) (Pseudomonas plecoglossicida; D44E/H404R/K5T)”, the Km (other: M2, pH 7.4, 37°C) amounted to 2500 µM.
